Molecular target: Orai1-CFP (UniProt Q96D31)
Sequence of UniProt Q96D31 (Q96D31 whole entry): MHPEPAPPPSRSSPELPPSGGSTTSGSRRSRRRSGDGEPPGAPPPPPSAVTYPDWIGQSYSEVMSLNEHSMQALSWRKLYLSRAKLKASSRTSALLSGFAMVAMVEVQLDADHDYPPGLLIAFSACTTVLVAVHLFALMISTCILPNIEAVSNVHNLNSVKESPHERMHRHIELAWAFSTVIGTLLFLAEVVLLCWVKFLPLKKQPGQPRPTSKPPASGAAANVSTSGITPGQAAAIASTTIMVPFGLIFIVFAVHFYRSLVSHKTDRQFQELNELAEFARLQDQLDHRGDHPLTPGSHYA

constitutive Ca2+ entry at rest [nM] | Substance
6.6 | STIM1-G379E (from UniProt Q13586 23-685) (natural protein)
3.5 | STIM1-G379E-ΔK (domain or fragment)
